Reference: patent US12528864 (GlaxoSmithKline, dated 2026)
Like-named read-outs stand apart in the source and are kept apart here.

Columns and labels:
recombinant human CD155 = target: T1, recombinant human CD155 (human, UniProt P15151 21-343); assay: surface plasmon resonance (SPR)
T1 sequence: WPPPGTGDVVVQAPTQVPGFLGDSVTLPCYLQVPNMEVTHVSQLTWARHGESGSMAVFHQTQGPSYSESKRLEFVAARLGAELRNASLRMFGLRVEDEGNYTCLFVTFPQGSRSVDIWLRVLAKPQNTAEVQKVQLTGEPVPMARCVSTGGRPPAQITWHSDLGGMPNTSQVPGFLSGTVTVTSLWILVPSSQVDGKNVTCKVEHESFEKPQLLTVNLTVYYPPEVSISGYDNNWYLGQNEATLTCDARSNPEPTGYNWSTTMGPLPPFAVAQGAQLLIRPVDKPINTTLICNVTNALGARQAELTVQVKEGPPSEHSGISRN

recombinant human CD226 = target: T2, recombinant human CD226 (human, UniProt Q15762 19-247, limits assumed); assay: surface plasmon resonance (SPR)
T2 sequence (looked up): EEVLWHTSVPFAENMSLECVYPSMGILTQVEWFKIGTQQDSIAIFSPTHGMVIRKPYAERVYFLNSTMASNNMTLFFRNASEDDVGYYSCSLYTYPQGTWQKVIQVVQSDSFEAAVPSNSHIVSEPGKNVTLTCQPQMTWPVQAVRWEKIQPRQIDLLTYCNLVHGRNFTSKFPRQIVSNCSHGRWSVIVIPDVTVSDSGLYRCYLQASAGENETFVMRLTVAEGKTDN

[1] = target: T3, recombinant human nectin-1 (human, UniProt Q15223 31-334, limits assumed); assay: surface plasmon resonance (SPR)
T3 sequence (looked up): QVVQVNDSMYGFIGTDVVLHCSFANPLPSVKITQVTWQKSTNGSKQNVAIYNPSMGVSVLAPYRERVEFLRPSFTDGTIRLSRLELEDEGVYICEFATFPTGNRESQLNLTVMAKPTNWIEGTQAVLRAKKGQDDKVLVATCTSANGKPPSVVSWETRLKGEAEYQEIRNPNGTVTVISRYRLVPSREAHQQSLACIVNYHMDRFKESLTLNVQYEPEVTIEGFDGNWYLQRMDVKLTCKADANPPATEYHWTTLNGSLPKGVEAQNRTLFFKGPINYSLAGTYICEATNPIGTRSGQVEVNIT

[2] = target: T4, human CD96v1 on transiently transfected HEK cells (human, UniProt P40200 22-585); assay: flow cytometry on transiently transfected HEK cells (Human CD96v1)
T4 construct: whole, on cells
T4 sequence (looked up): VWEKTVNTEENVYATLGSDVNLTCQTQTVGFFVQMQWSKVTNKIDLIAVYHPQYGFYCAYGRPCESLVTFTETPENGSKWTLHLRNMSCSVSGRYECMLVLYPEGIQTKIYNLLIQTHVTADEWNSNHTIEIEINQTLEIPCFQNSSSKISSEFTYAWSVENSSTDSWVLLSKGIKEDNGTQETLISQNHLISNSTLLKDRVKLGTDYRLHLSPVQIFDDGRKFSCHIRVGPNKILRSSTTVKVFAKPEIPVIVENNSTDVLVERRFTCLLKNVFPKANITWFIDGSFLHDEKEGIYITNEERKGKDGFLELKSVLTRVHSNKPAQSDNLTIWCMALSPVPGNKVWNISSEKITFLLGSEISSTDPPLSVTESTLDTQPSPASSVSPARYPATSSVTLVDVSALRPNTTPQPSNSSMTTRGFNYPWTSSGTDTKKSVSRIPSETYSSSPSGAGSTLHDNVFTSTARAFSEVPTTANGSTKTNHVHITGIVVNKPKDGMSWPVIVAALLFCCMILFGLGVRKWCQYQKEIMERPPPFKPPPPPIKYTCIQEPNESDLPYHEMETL

[3] = target: T5, human CD96v2 expressed on cells (CHO cells; transiently transfected HEK cells) (human, UniProt P40200-2 22-569); assay: flow cytometry on transiently transfected HEK cells; lower end of range, n = 3
T5 construct: whole, on cells; the cell is named under assay; also called CHO-huCD96; hCD96v2
T5 sequence (looked up): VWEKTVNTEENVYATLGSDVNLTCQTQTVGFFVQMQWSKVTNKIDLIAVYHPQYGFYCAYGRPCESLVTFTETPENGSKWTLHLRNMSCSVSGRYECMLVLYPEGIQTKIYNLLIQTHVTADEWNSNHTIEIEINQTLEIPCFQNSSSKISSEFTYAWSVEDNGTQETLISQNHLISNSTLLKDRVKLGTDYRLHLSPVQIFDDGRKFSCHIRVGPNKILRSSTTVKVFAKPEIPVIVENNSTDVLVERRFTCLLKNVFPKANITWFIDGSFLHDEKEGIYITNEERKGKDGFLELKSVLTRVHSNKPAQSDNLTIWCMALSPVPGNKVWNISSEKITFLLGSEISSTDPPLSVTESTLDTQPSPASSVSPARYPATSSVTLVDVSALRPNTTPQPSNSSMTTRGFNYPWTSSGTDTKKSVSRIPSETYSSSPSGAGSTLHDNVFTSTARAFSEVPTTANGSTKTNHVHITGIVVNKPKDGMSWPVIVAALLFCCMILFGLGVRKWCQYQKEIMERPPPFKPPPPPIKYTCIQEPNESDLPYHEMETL

[4] = target: T6, cynomolgus monkey CD96v1 on transiently transfected HEK cells (cynomolgus monkey); assay: as above
T6 construct: whole, on cells; also called Cyno CD96v1

[5] = target: T7, blood derived cynomolgus monkey CD96v2 on transiently transfected HEK cells (cynomolgus monkey); assay: as above
T7 construct: also called Blood derived Cyno CD96v2

[6] = target: T7, blood derived cynomolgus monkey CD96v2 …; assay: flow cytometry on transiently transfected HEK cells (Cyno blood derived CD96v2)
[7] = target: T7, blood derived cynomolgus monkey CD96v2 …; assay: as above; remark: listed apart in the source

B1: 42Y073-86F08-66 (antibody)
heavy: not shown
light: DIQLTQSPSSLSASVGDRVTITCRASQSISSYLNWYQQKPGKAPKLLIYAASSLQSGVPSRFSGSGSGTDFTLTISSLQPEDFATYYCQQVLHTITFGGGTKVEIKRTVAAPSVFIFPPSDEQLKSGTASVVCLLNNFYPREAKVQWKVDNALQSGNSQESVTEQDSKDSTYSLSSTLTLSKADYEKHKVYACEVTHQGLSSPVTKSFNRGEC
notes: also called GSK 6097608; GSK6097608
B1: no binding (recombinant human CD155); no binding (recombinant human CD226); no binding [1]. For the same binder, the “EC50 (read off the curve)” value [2] was roughly 3 nM, the EC50 [3] was 4.72 nM and the EC50 [4] was 6.83 nM. The EC50 [5] was 5.27 nM, the “EC50 (read off the curve)” value [6] was roughly 7 nM and the “EC50 (read off the curve)” value [7] was roughly 9 nM.
